The supplement of paper PMC12042874
± gives the uncertainty stated by the source.

Assay: amyloid nucleation score (Sup35N fusion, yeast selection) (log enrichment); library NNK3; higher = more nucleation; inactive = no reads after selection
How it was run: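 Random libraries were run with three technical output replicates. In each, psi-negative yeast expressing Sup35N fused to peptides of 20 random codons were induced 24 hours with 100 μM copper sulfate and grown 7 days at 30°C on medium lacking adenine and uracil, and input and output plasmid inserts were Illumina-sequenced. The nucleation score is the DiMSum log enrichment of output over input reads, centred on the mode score of non-aggregating sequences, and sequences under 100 input reads were excluded.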

Substance | amyloid nucleation score
FVLVGL | inactive
FVMTIM | inactive
FVNSRVLWMIKIC | inactive
FVPNVRLTDLWRANKGIVSH | 0.404 ± 0.38
FVQSGLFFMCDGSCGLLRVF | inactive
FVRIHVGSSTGIF | inactive
FVSGDSNTIIQPMAYNMDSK | -0.282 ± 0.42
FVSVDGWSESMWLASVVLSE | inactive
FVTIRGVRRTCNPFKGINYG | inactive
FVVFCRNPNSGLGNCTVSCD | inactive
FVVFIRDIICMVNNFMLMRM | inactive
FVVRIKYTGSDLRLFRMVSF | inactive
FVVSKLYMPRWASLLLCWRL | inactive
FVYILGTMMNRRGFDPWIGD | 0.631 ± 0.32
FWGVSDGFMC | -0.141 ± 0.96
FWIWIWRIWYDGNEDNLDHF | inactive
FWKAFRFTDSVFPIKHPNLS | inactive
FWLGGVDLAPKVGKQTMNLA | inactive
FWRLRWYMRDGFSDYSGGEY | 0.719 ± 0.13
FWSPGYTIVTVTLNGLVPW | inactive
FWSSLAVQRACKCMGGFCDL | inactive
FWSWNVWLRSGSPAISFHK | inactive
FWTKFC | inactive

Substance | amyloid nucleation score
FYDLFN | inactive
FYFVGKYWRGDEYFDFRLAV | inactive
FYGHQVNISGDNGVRTRPEV | inactive
FYHNNYINANHVWRKSY | inactive
FYICYLNPNQQLFVLN | 1.27 ± 0.1
FYILCHHKDCNIGHPILGGK | inactive
FYLYLDHVKVNWSRS | 0.989 ± 0.15
FYNVRF | inactive
FYSLWRNRYNNSNQEWDIRW | inactive
FYSMSLVSFCFYGDLYLDNG | 2.76 ± 0.077
FYSNPNIVGFLMLLVYILEP | inactive
FYVLNMNDLTSGLDMHVKS | inactive
FYYWVGFCAGKAEDFRDLLC | inactive
FYYYDLYYGRVFRDSPYSMS | inactive
GAFSEDFRESGLFLNVREGE | inactive
GAGYADICPTAFHMPRWVFN | inactive
GAIWERLDIREM | inactive
GAMCIRWEG | inactive
GAPGLMFVFLKKSVFLYSYL | inactive
GASGCLSWHFGLIV | inactive
GASNMFHDPELSG | inactive
GAVRMVETTMYFLFTMPSGS | 0.359 ± 0.24
GCGSYSDQGRCSTSVSVC | inactive

Substance | amyloid nucleation score
GCHFLH | inactive
GCIIGCQLDKYGPAMPSARE | 0.632 ± 0.3
GCIMEEKFLRMDFDVVSEYN | inactive
GCNRVIYKRI | -0.609 ± 1.2
GCVRGCTATWRMLCAGSKCC | 0.71 ± 0.33
GCVSGRHDNTFRDYD | inactive
GDEWGSFLECFITITSSIND | inactive
GDFYASGSPVKFVRVGMDEC | inactive
GDHSDWRKRGSLLNGVVLCV | -0.5 ± 1.5
GDILGHRRHSVVRSRRQSLT | inactive
GDLSS | inactive
GDNHSQD | 0.37 ± 0.16
GDQFQAMHVWNLPDVDYYVH | inactive
GDSCCDRLYLFFGVWCVRAV | inactive
GDSIRSWNRGAVEIA | -0.377 ± 1.5
GDSLGGTYYLLRSFFCCRDL | inactive
GDSLMMYQQDWISEVLICLA | inactive
GDVIMCFNFRTFLSTITPGS | 1.96 ± 0.092
GEILSGITTLGVYYSYVWHL | inactive
GESAKDVFGSLCRRLISIQL | inactive
GESNVFILSAFNFNALVGFS | inactive
GEVNTAFYSWPAMPVLADYG | inactive
GFGFRAVMPMLYFEYYGQR | 0.793 ± 0.12

Substance | amyloid nucleation score
GFRMGLTHCHSALKEFRFCH | inactive
GFSYSWNLFILFGQQICWIW | inactive
GFTVMDPIV | inactive
GFVFQVYPQFVWVPPTTSRQ | 1.2 ± 0.18
GFYLVKSSMSWVANWCGKHT | inactive
GGCDL | inactive
GGEGHSEVRRKTPGITCACI | inactive
GGFRISHSIC | inactive
GGKSVLLTFFQWLP | 0.56 ± 0.2
GGMYKNWGCWLELLGKTLPW | inactive
GGQGIYMY | inactive
GGRDNTEIDVMTWRRRPGKS | inactive
GGSLGHSRLSKDVSVEESAW | inactive
GGVRPVKYGSVWVYRFWDQC | inactive
GGVTFYMYCIRLVNDQQGHR | 1.21 ± 0.098
GGYQAQTWL | inactive
GHISGTESCNI | inactive
GHPGNSAEADKCGHRQRRP | inactive
GHSHCMNSVLHSNMSLNTVI | inactive
GHVSTCPNDGAAALSCLELF | inactive
GICHSSRCWGTSENGNWLRI | inactive
GIFEFKLNSLNSNERGLRAG | inactive
GIGLCVGYE | inactive

Substance | amyloid nucleation score
GILCVEMSVTSLGLIIETYF | inactive
GILNFAL | inactive
GILNT | inactive
GILSKIDVSWWRMAVSVKCW | inactive
GIRHVGLVGTMSRKDWSYFR | inactive
GIRYQRFVRRVFHDYWR | inactive
GISALSVWFCISDRRSDQDH | 2.63 ± 0.057
GITMFGLHMYQNDCLEVAWL | 0.904 ± 0.25
GITVMSLTG | inactive
GIVDQFRTVSNNVLNQYEIW | inactive
GIWCDITHGNRMAWNYVLIR | inactive
GIWDWVLAIMLRFVTKPS | inactive
GKGPNCMGASFLNGAHWSGI | inactive
GKISTRFRFFSVDETRPTIN | 1.18 ± 0.15
GKKLDMYHIRHSRW | inactive
GKVYLYLCLGMMFGL | inactive
GKYKFSLF | inactive
GLCPYSIQFFGGRSDHNW | 1.24 ± 0.15
GLCRWVTPTAWSAIVVQFCV | inactive
GLCSMLASFRTQYSS | inactive
GLDHLPMFWYRPLIWPDVPQ | inactive
GLEFRARRKCRTKGELHDK | inactive
GLFESERIYMWAYHFR | inactive

Substance | amyloid nucleation score
GLFRFFVIIITEEVRRAVSK | inactive
GLFRRVRGIRT | inactive
GLGPSCSQYKP | inactive
GLGTAD | inactive
GLIVCVVASSYLMSGFGVKG | 0.03 ± 0.22
GLMESSCRMGLLNPIQTFTQ | 0.036 ± 0.98
GLPLVACLMSEQYCL | inactive
GLQVYMIQRIETGM | inactive
GLTTSYQPYILYIL | inactive
GLVLTPDEEMIRQWEMLTYG | inactive
GLVNVVWMCFLGWPWLKVRS | inactive
GLVSGGVFMMADMSRILKGK | inactive
GLVYWVQHGCWLTAIQSVLV | inactive
GMFDCMIELYISGPDLGQGS | inactive
GMFMCMKMVFFLKWYINLYF | inactive
GMFRDHAYADCRGLTY | inactive
GMIASDVFAHFKSGQTMGVW | inactive
GNDVGSMFESRN | inactive
GNFINHT | inactive
GNGSMVVYKSARVNLLSGIT | inactive
GNIVLMMSYILM | 2.3 ± 0.086
GNLLMYHGIWGTNALEDRYL | inactive
GNMKNHTMQFAEVVDGDFTM | inactive

Substance | amyloid nucleation score
GNMQVRYRIESANNRMGQRE | 0.261 ± 0.47
GNNVTHSRDRCSMWYWVHLL | inactive
GNSASLEEVVLMEEGGVLCA | inactive
GNWWCNCTQYNLGMMDSALG | 1.98 ± 0.071
GNYSREVRKNVYPETGVRQM | inactive
GPLFRLRMFL | inactive
GPLSHRN | inactive
GPMWQLAVTCACSDNRMWTK | 0.053 ± 0.51
GPQYWCVTRNNYYGSFYEVS | 0.407 ± 0.18
GPSPDPNRLP | -0.754 ± 1.3
GPSSMINNVDLSCFSF | inactive
GPWGSNNMQICTYFQNLFIA | 1.73 ± 0.092
GQHSRSLDTSACCPT | inactive
GQNPSLRLVKESGF | inactive
GQNSRPGLANTLLYPEVLIR | inactive
GQSNMFCNWTFANVKRCNL | 2.33 ± 0.071
GQVLNCVRNRIRIAVKRRGG | inactive
GRCMEGS | inactive
GRCRITKSLGGSSQTNGYWV | inactive
GRGNAGPCTSNRWDDFWEKK | inactive
